# Laboratory results taken from US5639728A, “Antineoplastic peptide” (priority 1993, dated 1997).
# B1: LT: native-form human lymphotoxin (LT) (protein, UniProt P01374 35-205, looked up)
# Lymphotoxin-alpha: LPGVGLTPSAAQTARQHPKMHLAHSTLKPAAHLIGDPSKQNSLLWRANTDRAFLQDGFSLSNNSLLVPTSGIYFVYSQVVFSGKAYSPKATSSPLYLAHEVQLFSSQYPFHVPLLSSQKMVYPGLQEPWLHSMYHGAAFQLTQGDQLSTHTDGIPHLVLSPSTVFFGAFAL
# How the values were obtained:
# [1] = tested on: Meth A mouse sarcoma cells; experiment: Antitumor effect on Meth A mouse sarcoma transplanted into Balb/c mice; type: in vivo; details: for Inhibition rate (tumor growth restriction rate): day 21
# Procedure: (§1) The following experiments were performed in order to calculate a therapeutic index (ratio of toxicity and effectiveness). 2×10^5 Meth A mouse sarcoma cells were transplanted into the dorsal subcutis of 6-week-old female Balb/c mice in single groups comprising from 5 to 10 animals. Seven days after the tumor transplant, the tested substance was dissolved in physiological saline (9.9×10^7 units/ml, 5×10^7 units/mg), and this solution was administered intravenously to the mice twice per week; a total five times. In a control group, physiological saline alone was administered intravenously.
# When 21 days following the transplant had passed, surviving animals were sacrificed, and tumors were excised. The excised tumors were weighed, and a mean tumor weight was calculated in each group. The mean tumor weight in each administration group was compared with the mean tumor weight in the control group, and tumor growth restriction rates were determined.
# (§2) Based on the tumor growth restriction rates obtained at various concentrations, concentrations restricting tumor growth by 50% (50% effective dose; ED50 mg/kg) were calculated. In each administration group, when toxicity deaths were observed, a 50% lethal quantity (50% lethal dose; LD50 mg/kg) was calculated. The therapeutic index was taken as the ratio of the 50% lethal quantity (LD50) to the 50% tumor growth restriction quantity (ED50)
# (§3) Control Δ10LT^4) was the TNF disclosed in JJP, A, S60-185799.
# [2] = Toxicity deaths (LD50) in Balb/c mice; type: in vivo, mouse; details: i.v. twice per week, five times; female Balb/c mice
# Procedure: as §1, §2, §3
# [3] = Effect on systolic blood pressure in SD rats; type: in vivo, rat; details: 1 mg/kg i.v., t-test *P < 0.05 for PΔ10LT, FΔ10LT, Δ10LT, LT, TNFα, -- for FPΔ10LT, MLT
# From the text: Using 11-week-old Crj:CD(SD) rats 350 to 400 g in weight (Nihon Charles River), effects of each test substance on blood pressure were investigated as follows. The aforementioned rats were given ether anesthesia, hair in the right femoral region was cue with clippers, and the skin was cut open using a small scissors. Xylocaine jelly (local anesthetic) was then applied to the cut skin, and each blood vessel was carefully peeled using a tweezers. After the peeling, an SP10 cannulation tube equipped with a three-way cock (Natsume) was attached to arteries and veins, and 200 unit/ml heparin solution was injected therefrom.
# After insertion, the skin was sutured using an automatic stitcher, and the rats were secured to a stationary platform (Natsume, Boormann cage). After securing, air in the three-way cock of the arterial cannula was completely removed, and a polygraph (Nihon Denki Sanei, Model 363 System) pressure transducer was connected. After connection, the polygraph was set up, blood pressure measurement was begun, and when blood pressure and heart rate had stabilized, each tested substance used in the foregoing antitumor effect testing was administered by intravenous injection, and 24 hour systolic blood pressure was measured after administration. […]
# [4] = previously known; cited from earlier work
Molecule,"Inhibition rate (tumor growth restriction rate) ([1]; 0.23 mg/kg i.v. twice per week, five times) [%]","Inhibition rate (tumor growth restriction rate) ([1]; 0.94 mg/kg i.v. twice per week, five times) [%]","ED50 (50% tumor growth restriction) ([1]; i.v. twice per week, five times, Meth A, female Balb/c mice) [mg/kg]","Treatment coefficient (LD50/ED50) ([1]; therapeutic index, LD50/ED50)",LD50 [2] [mg/kg],Decrease of blood pressure (% of the control value) 24 hours after administration [3] [%],"hypotensive effect, in words [4]"
TNFα,43.3,86.5,0.31,3.5,1.08,-9.6,hypotension is a side effect
B1,–,–,–,–,–,-10.1,also has a hypotensive effect
